Our source for the Kd values is US20250188188A1.

Test [1] concerns the target recombinant human ProC1s with Arg437 mutated to glutamine (hProC1s_RQ), C-terminal spacer and 10 histidines (human). In words: SPR. (SPR reads the build-up and loss of mass on a sensor chip optically.)
Test [2] has as its target active human C1s purified from human serum (CompTech, Tyler, TX, catalog number A104) (human) (UniProt P09871). Description: SPR.

Chain of recombinant human ProC1s with Arg437 mutated to glutamine (hProC1s_RQ), C-terminal spacer and 10 histidines (human) (chain, as listed by the source limits assumed, change not shown, form in doubt): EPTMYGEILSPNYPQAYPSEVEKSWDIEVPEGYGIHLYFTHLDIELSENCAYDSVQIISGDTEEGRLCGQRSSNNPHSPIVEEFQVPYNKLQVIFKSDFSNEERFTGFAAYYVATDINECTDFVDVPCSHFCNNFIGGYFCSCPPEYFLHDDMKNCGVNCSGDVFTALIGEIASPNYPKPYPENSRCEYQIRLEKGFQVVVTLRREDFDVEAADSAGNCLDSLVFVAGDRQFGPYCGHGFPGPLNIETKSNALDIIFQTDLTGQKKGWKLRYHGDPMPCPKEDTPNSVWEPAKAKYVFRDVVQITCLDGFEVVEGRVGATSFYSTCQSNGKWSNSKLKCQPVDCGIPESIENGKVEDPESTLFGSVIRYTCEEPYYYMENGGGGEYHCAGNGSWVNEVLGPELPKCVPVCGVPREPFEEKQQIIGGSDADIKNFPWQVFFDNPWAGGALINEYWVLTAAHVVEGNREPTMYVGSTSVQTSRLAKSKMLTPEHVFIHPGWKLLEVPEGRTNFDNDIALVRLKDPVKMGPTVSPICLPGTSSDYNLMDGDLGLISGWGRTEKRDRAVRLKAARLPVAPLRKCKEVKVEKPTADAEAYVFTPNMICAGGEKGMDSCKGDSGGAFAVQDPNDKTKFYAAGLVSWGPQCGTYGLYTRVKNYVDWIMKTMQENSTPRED
Chain of active human C1s purified from human serum (CompTech, Tyler, TX, catalog number A104) (human) (P09871 16-437, chain 1 of 2): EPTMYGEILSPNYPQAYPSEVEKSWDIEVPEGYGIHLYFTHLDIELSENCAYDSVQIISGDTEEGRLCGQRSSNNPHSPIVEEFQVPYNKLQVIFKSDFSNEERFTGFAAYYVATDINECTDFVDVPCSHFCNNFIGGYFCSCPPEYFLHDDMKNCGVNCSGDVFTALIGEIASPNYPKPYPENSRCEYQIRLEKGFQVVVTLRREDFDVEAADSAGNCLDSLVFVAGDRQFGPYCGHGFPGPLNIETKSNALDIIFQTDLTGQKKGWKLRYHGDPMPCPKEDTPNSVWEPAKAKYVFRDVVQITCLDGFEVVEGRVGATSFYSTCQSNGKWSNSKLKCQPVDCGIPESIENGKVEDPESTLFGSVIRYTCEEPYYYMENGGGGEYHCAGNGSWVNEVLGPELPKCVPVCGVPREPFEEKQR
Chain of active human C1s purified from human serum (CompTech, Tyler, TX, catalog number A104) (human) (P09871 438-688, chain 2 of 2): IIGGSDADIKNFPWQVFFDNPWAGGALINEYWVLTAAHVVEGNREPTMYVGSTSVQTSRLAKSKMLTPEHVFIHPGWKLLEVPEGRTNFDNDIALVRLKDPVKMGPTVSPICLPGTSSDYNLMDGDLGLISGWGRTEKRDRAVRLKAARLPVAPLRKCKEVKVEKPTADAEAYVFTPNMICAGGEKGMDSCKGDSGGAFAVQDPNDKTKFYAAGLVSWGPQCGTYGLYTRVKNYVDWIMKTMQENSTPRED

As a reminder, the Kd is the constant that tells how readily two partners part at equilibrium. Take “recombinant sutimlimab/BIVV009/TNT009 (antibody)”: the Kd in test [1] worked out at 0.4 nM; in test [2], 0.25 nM.
